According to article PMC10897913 (iScience, 2024):

Biological target: T1, GST-DUB3 (human, UniProt Q6R6M4 1-530)
T1 sequence (looked up): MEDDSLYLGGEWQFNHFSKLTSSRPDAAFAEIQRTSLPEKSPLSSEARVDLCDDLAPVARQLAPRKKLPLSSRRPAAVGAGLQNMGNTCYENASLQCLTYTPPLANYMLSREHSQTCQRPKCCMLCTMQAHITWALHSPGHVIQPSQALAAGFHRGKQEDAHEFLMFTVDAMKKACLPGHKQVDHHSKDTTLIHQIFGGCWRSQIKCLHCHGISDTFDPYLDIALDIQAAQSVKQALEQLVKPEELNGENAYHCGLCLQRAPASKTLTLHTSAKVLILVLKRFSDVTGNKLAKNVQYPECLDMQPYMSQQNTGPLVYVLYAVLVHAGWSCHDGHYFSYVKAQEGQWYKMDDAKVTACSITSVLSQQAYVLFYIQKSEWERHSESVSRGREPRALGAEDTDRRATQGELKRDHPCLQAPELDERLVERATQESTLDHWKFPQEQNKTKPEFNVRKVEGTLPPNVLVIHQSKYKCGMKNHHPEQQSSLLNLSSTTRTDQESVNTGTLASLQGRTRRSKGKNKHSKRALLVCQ
Assay: pull-down

- binding result: binds
B1: MAGEA3-His (natural protein, human, UniProt P43357 1-314, looked up)
chain: MPLEQRSQHCKPEEGLEARGEALGLVGAQAPATEEQEAASSSSTLVEVTLGEVPAAESPDPPQSPQGASSLPTTMNYPLWSQSYEDSSNQEEEGPSTFPDLESEFQAALSRKVAELVHFLLLKYRAREPVTKAEMLGSVVGNWQYFFPVIFSKASSSLQLVFGIELMEVDPIGHLYIFATCLGLSYDGLLGDNQIMPKAGLLIIVLAIIAREGDCAPEEKIWEELSVLEVFEGREDSILGDPKKLLTQHFVQENYLEYRQVPGSDPACYEFLWGPRALVETSYVKVLHHMVKISGGPHISYPPLHEWVLREGEE
